From patent US20230365649A1 (published 2023) come the findings set out here.

Substitutions are numbered along the chain they refer to.

T1: KRAS wild type (WT 25-mer) peptide on HLA-DQA1*05:01 / HLA-DQB1*03:01 (human)
T1 peptide: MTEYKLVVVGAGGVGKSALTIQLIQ

T2: KRAS G13D (G13D RAS; the same in KRAS, HRAS and NRAS) peptide on HLA-DQA1*05:01 / HLA-DQB1*03:01 (human)
T2 peptide: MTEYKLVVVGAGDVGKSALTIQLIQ

B1: 4400 TCR-N12 (TCR, V domains shown)
Valpha: QKEVEQDPGPLSVPEGAIVSLNCTYSNSAFQYFMWYRQYSRKGPELLMYTYSSGNKEDGRFTAQVDKSSKYISLFIRDSQPSDSATYLCAMSYSGGGADGLTFGKGTHLIIQP
Vbeta: DVKVTQSSRYLVKRTGEKVFLECVQDMDHENMFWYRQDPGLGLRLIYFSYDVKMKEKGDIPEGYSVSREKKERFSLILESASTNQTSMYLCASSTGNTGELFFGEGSRLTVL
B2: 4400 TCR-A3 (TCR, V domains shown)
Valpha: KTTQPNSMESNEEEPVHLPCNHSTISGTDYIHWYRQLPSQGPEYVIHGLTSNVNNRMASLAIAEDRKSSTLILHRATLRDAAVYYCILRAPSGTYKYIFGTGTRLKVLA
Vbeta: B1 Vbeta with S94R, T95Q
B3: 4400 TCR-N13 (TCR, V domains shown)
Valpha: QKEVEQDPGPLSVPEGAIVSLNCTYSNSAFQYFMWYRQYSRKGPELLMYTYSSGNKEDGRFTAQVDKSSKYISLFIRDSQPSDSATYLCAMRANTDKLIFGTGTRLQVFP
Vbeta: B1 Vbeta with S94R, T95V
B4: 4400 TCR-J2 (TCR, V domains shown)
Valpha: NSVTQMEGPVTLSEEAFLTINCTYTATGYPSLFWYVQYPGEGLQLLLKATKADDKGSNKGFEATYRKETTSFHLEKGSVQVSDSAVYFCALRLSGAGSYQLTFGKGTKLSVIP
Vbeta: B1 Vbeta with T95Q
B5: 4400 TCR-N4 (TCR, V domains shown)
Valpha: QKITQTQPGMFVQEKEAVTLDCTYDTSDPSYGLFWYKQPSSGEMIFLIYQGSYDQQNATEGRYSLNFQKARKSANLVISASQLGDSAMYFCAMRERSGTASKLTFGTGTRLQVTL
Vbeta: DVKVTQSSRYLVKRTGEKVFLECVQDMDHENMFWYRQDPGLGLRLIYFSYDVKMKEKGDIPEGYSVSREKKERFSLILESASTNQTSMYLCASSLGVGSNYGYTFGSGTRLTVV
B6: 4400 TCR-20 (TCR, V domains shown)
Valpha: B5 Valpha with T99G, A100S, S101Y, K102I, L103P, T107R, R110S, Q112I, T114H, L115P
Vbeta: DVKVTQSSRYLVKRTGEKVFLECVQDMDHENMFWYRQDPGLGLRLIYFSYDVKMKEKGDIPEGYSVSREKKERFSLILESASTNQTSMYLCASSLGTFNQPQHFGDGTRLSIL
B7: 4400 TCR-C (TCR, V domains shown)
Valpha: B5 Valpha with S97T
Vbeta: B6 Vbeta with L95P, F98E, Q100S, Q102L, D106N, S111T, I112V, L113T
B8: 4400 TCR-A1 (TCR, V domains shown)
Valpha: B3 Valpha
Vbeta: B1 Vbeta with S94R, T95L
B9: 4400 TCR-A2 (TCR, V domains shown)
Valpha: B3 Valpha
Vbeta: B1 Vbeta with S94R, T95Q
B10: 4400 TCR-N (TCR, V domains shown)
Valpha: GEDVEQSLFLSVREGDSSVINCTYTDSSSTYLYWYKQEPGAGLQLLTYIFSNMDMKQDQRLTVLLNKKDKHLSLRIADTQTGDSAIYFCAPGGYNKLIFGAGTRLAVHP
Vbeta: B1 Vbeta with S94R, T95I
B11: 4400 TCR-J (TCR, V domains shown)
Valpha: B1 Valpha
Vbeta: B1 Vbeta with T95Q
B12: 4400 TCR-E (TCR, V domains shown)
Valpha: DAKTTQPPSMDCAEGRAANLPCNHSTISGNEYVYWYRQIHSQGPQYIIHGLKNNETNEMASLIITEDRKSSTLILPHATLRDTAVYYCIVRVAKSGANNLFFGTGTRLTVIP
Vbeta: EADIYQTPRYLVIGTGKKITLECSQTMGHDKMYWYQQDPGMELHLIHYSYGVNSTEKGDLSSESTVSRIRTEHFPLTLESARPSHTSQYLCASSGLTYTDTQYFGPGTRLTVL

For the first assay, the target named is T1, KRAS wild type (WT 25-mer) peptide on …. As to the kind of experiment: activation reporter or marker.
As to B1, the binding result is reported as “no recognition”.

For the molecule B2, the binding result is on record as “no recognition”.

Take B3: the binding result is recorded as “no recognition”.

With B4, the binding result is recorded as “no recognition”.

As to B5, the binding result is reported as “no recognition”.

Turning to B6, the binding result is recorded as “no recognition”.

For B7, the binding result is “no recognition”.

Another assay deals with T2, KRAS G13D (G13D RAS; the same in KRAS, …). As to the kind of experiment: activation reporter or marker.
In the case of B1, the binding result is “recognises”.

In the case of B2, the binding result was “recognises”.

Regarding B3, the binding result is reported as “recognises”.

Regarding B4, the binding result is listed as “recognises”.

As to B5, the binding result is given as “recognises”.

As for B6, the binding result is “recognises”.

Turning to B7, the binding result is “recognises”.

In another assay the target is T1, KRAS wild type (WT 25-mer) peptide on …. The experiment in a line: cytokine release.
With B8, the binding result is reported as “no recognition”.

For the molecule B9, the binding result is listed as “no recognition”.

Take B10: the binding result was “no recognition”.

Regarding B11, the binding result was “no recognition”.

On to B12, for which the binding result is “no recognition”.

The next assay deals with T2, KRAS G13D (G13D RAS; the same in KRAS, …). As to the kind of experiment: cytokine release.
B8: the binding result was “recognises”.

As for B9, the binding result is listed as “recognises”.

Regarding B10, the binding result is on record as “recognises”.

Take B11: the binding result is listed as “recognises”.

B12: the binding result is on record as “recognises”.
